Results from PMC3070410.

Biological target: T1, RepA hexameric replicative helicase (plasmid RSF1010, UniProt P20356 1-279)
T1 sequence: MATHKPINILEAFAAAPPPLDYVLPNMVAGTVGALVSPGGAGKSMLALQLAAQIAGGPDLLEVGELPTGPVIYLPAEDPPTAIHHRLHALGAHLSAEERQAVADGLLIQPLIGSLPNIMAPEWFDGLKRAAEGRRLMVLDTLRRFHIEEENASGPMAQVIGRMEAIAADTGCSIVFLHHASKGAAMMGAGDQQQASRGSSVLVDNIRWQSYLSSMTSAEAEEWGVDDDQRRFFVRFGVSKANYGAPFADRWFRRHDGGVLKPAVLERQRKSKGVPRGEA
Assay: stopped-flow fluorescence anisotropy

Binder: TTTTTTTTTTTTTTTTTTTT (ssDNA, 3' amino six-carbon linker residue) [dT(pT)19-Fl-3' (21-mer)]
- binding result: binds
